Test results reported in paper PMC4756307.

The sequences below were run against T1, CodY (6His-CodY) (Streptococcus suis serotype 2 (strain SC19?)) (UniProt A0A0H3MTH0) (assay: EMSA). Details: EMSA: 1 ug PCR product with 0-2200 ng CodY in binding buffer (Beyotime; composition, pH and salt not given), 30 min at 37 C, native PAGE, ethidium bromide ….
T1 sequence: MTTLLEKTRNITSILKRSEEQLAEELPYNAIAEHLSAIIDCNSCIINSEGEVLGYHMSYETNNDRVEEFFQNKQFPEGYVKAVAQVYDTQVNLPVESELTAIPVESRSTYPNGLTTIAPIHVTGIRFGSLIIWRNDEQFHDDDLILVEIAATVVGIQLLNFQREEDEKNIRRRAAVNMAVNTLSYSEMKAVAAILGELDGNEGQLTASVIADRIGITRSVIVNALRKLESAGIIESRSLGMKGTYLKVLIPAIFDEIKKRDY

Sequence	binding
ATCTCGGTCTTTGGTTGTTTGGCTTTACAGCTCTATACTTTGTGGCAGCTTATCTGATTGCCCTCAATCCATCTCAAATCTTAAATAGTATCGGACGTATTTTAACCCCTGTTTTTGCGATTTTGATTGTGATTTTGGTGGTGCTTGGTATTGTTAAGTACGGATCAACAAGTCCGTTACCAGCTTCGGAAGCTTACTCAGCAGGACAGGCATTTGGTACAGGATTTATCGAGGGATACAATACACTCGACGCACTTGCTTCTATTGCTTTTAGTGTCGTAGCAGTAAATACCT (double strand) [bap2 promoter]	binds
AATACAAGCGACGATTCCCTTCGTTGCGATCGGGCTTAATCAAGCCTTGATCTTCATAGTAACGAATTTGACGAGCAGTTAAATCTGTCAACTTCATCACACTACCGATCGGAAAGATAGCTAAGGAACGACGAAACTCTTTTTCTCTCATAATGAACTCCTTTCTGCCTACCATTATAGGAGAATTTTTTTTTGAGGTCAATAGGTGATGTTATATTTTATAACATCATTTATCCTGAAAACGTTTTTTTATAACATTCACATCATAATTAACTAGAATCGCAATGAAAACTCC (double strand) [glnR promoter]	binds
TCTGTATTTATCATTGTAGTCCTATCTGCAACAGTAGAAAATTATATTGTAAATTTAAGTTTTGTATTTATGCCAATATGTTTTTGTTTATTAAATTCTATATCTACTATGGAATCAACTATTAACAAACAACTGCAAACATAAATTGGCAGGAATAGAGTTTTGAGTTGCTATTAATTTGGTAGAGCATATGTTCTATAGGTGGCAAGATAGAAGATAGTATTTTTTACATGATGATTTTTATGATAGCA (double strand) [cps2J promoter]	binds
GGACGTATGCGCCTCTGCTTATGCCAGAAGTCATGAGGTAAATCTCCCTAAAAATTGGGTAGAAAAGCAGATTAAACTTCCACCAATCTATTGAAGATCGTGTGAAGAAGCAGGCTTTAGAAGCAACAAGCCCTGAGACTATTCGAAAGAAATCTAGGGCTATTTTTTCTAATCGGCTATCAGAAGTGAAGTAGCGATCTTTATTAGTGTTCTTTTACTACTTAAGGAAAACCAAGCTGCTCCCTCAAGACTTTATGGGAGCGATTTACAGTCATTT (double strand) [neuB (neu) promoter]	no binding
